B1: SLC35F2 (parent)
chain: SFMPLVIKVTSATSVNLGILTADL
B2: MAGEA6 (parent)
chain: KISGGPRISYPLLHEWALREGEE

Variants of: B1
Assay: protein stability index of a GFP-peptide fusion (GPS, HEK-293T) (PSI 1-6); higher = more stable
Settings: c terminus: a fixed tail appended
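Also: lentivirally expressed fusions sorted by FACS into six bins by GFP to DsRed ratio, PSI derived from sequencing read proportions per bin multiplied by bin number.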

First: SFMPLVIKVTSATSVNLGIVTADL [L20V]
Second: SFMPLVIKVTSATSVNLGIYTADL [L20Y]
The protein stability index of the first is lower: 3.65 for the first, 3.69 for the second.

First: SFMPLVIKVTSATSVNLGISTADL [L20S]
Second: SFMPLVIKVTSATSVNLGIPTADL [L20P]
The protein stability index of the first is higher: 2.8 for the first, 2.38 for the second.

Going from SFMPLVIKVTSATSVNLGIQTADL [L20Q] to SFMPLVIKVTSATSVNLGIWTADL [L20W], the protein stability index rises from 3.08 to 3.1.

First: SFMPLVIKVTSATSVNLGITTADL [L20T]
Second: SFMPLVIKVTSATSVNLGILTADW [L24W]
The protein stability index of the first is higher: 2.55 for the first, 1.78 for the second.

Going from SFMPLVIKVTSATSVNLGILTADG [L24G] to SFMPLVIKVTSATSVNLGILTADM [L24M], the protein stability index falls from 3.04 to 3.01.

First: SFMPLVIKVTSATSVNLGILTADS [L24S]
Second: SFMPLVIKVTSATSVNLGILTADD [L24D]
The protein stability index of the first is higher: 2.87 for the first, 1.55 for the second.

First: SFMPLVIKVTSATSVNLGILTADH [L24H]
Second: SFMPLVIKVTSATSVNLGILTADY [L24Y]
The protein stability index of the first is lower: 3.57 for the first, 4.32 for the second.

Going from SFMPLVIKVTSATSVNLGILTADV [L24V] to SFMPLVIKVTSATSVNLGILTADP [L24P], the protein stability index rises from 2.43 to 3.07.

Compared with SFMPLVIKVTSATSVNLGILTADN [L24N], SFMPLVIKVTSATSVNLGILTADF [L24F] is lower in protein stability index: 3.27 for the first, 3.22 for the second.

Compared with SFMPLVIKVTSATSVNLGILTADK [L24K], SFMPLVIKVTSATSVNLGILTADI [L24I] is higher in protein stability index: 2.4 for the first, 3.14 for the second.

Compared with SFMPLVIKVTSATSVNLGILTADR [L24R], SFMPLVIKVTSATSVNLGILTADE [L24E] is higher in protein stability index: 1.89 for the first, 2.21 for the second.

Going from SFMPLVIKVTSATSVNLGILTADA [L24A] to SFMPLVIKVTSATSVNLGILTADQ [L24Q], the protein stability index falls from 3.11 to 2.79.

Going from SFMPLVIKVTSATSVNLGILTADT [L24T] to SFMPLVIKVTSATSVNLGILTADC [L24C], the protein stability index rises from 2.24 to 3.76.

Going from SFMPLVIKVTSATSVNLGILSADL [T21S] to SFMPLVIKVTSATSVNLGILKADL [T21K], the protein stability index falls from 3.64 to 2.52.

Going from SFMPLVIKVTSATSVNLGILHADL [T21H] to SFMPLVIKVTSATSVNLGILYADL [T21Y], the protein stability index falls from 4.75 to 3.83.

Compared with SFMPLVIKVTSATSVNLGILAADL [T21A], SFMPLVIKVTSATSVNLGILPADL [T21P] is higher in protein stability index: 2.49 for the first, 2.5 for the second.

Compared with SFMPLVIKVTSATSVNLGILWADL [T21W], SFMPLVIKVTSATSVNLGILNADL [T21N] is lower in protein stability index: 2.7 for the first, 1.87 for the second.

Going from SFMPLVIKVTSATSVNLGILQADL [T21Q] to SFMPLVIKVTSATSVNLGILFADL [T21F], the protein stability index falls from 2.79 to 1.85.

Going from SFMPLVIKVTSATSVNLGILVADL [T21V] to SFMPLVIKVTSATSVNLGILRADL [T21R], the protein stability index rises from 2.54 to 3.24.

Compared with SFMPLVIKVTSATSVNLGILGADL [T21G], SFMPLVIKVTSATSVNLGILDADL [T21D] is higher in protein stability index: 2.24 for the first, 2.61 for the second.

First: SFMPLVIKVTSATSVNLGILLADL [T21L]
Second: SFMPLVIKVTSATSVNLGILMADL [T21M]
The protein stability index of the first is lower: 2.33 for the first, 2.77 for the second.

First: SFMPLVIKVTSATSVNLGILEADL [T21E]
Second: SFMPLVIKVTSATSVNLGILIADL [T21I]
The protein stability index of the first is lower: 2.86 for the first, 3.26 for the second.

First: SFMPLVIKVTSATSVNLGILTYDL [A22Y]
Second: SFMPLVIKVTSATSVNLGILTDDL [A22D]
The protein stability index of the first is higher: 3.41 for the first, 2.67 for the second.

Compared with SFMPLVIKVTSATSVNLGILTLDL [A22L], SFMPLVIKVTSATSVNLGILTEDL [A22E] is higher in protein stability index: 2.58 for the first, 2.99 for the second.

Going from SFMPLVIKVTSATSVNLGILTWDL [A22W] to SFMPLVIKVTSATSVNLGILTQDL [A22Q], the protein stability index falls from 3.55 to 2.86.

First: SFMPLVIKVTSATSVNLGILTHDL [A22H]
Second: SFMPLVIKVTSATSVNLGILTPDL [A22P]
The protein stability index of the first is higher: 3.34 for the first, 3.07 for the second.

Compared with SFMPLVIKVTSATSVNLGILTNDL [A22N], SFMPLVIKVTSATSVNLGILTVDL [A22V] is higher in protein stability index: 2.95 for the first, 3.18 for the second.

First: SFMPLVIKVTSATSVNLGILTMDL [A22M]
Second: SFMPLVIKVTSATSVNLGILTKDL [A22K]
The protein stability index of the first is higher: 3.85 for the first, 2.21 for the second.

First: SFMPLVIKVTSATSVNLGILTGDL [A22G]
Second: SFMPLVIKVTSATSVNLGILTCDL [A22C]
The protein stability index of the first is lower: 3.15 for the first, 4.09 for the second.

Compared with SFMPLVIKVTSATSVNLGILTTDL [A22T], SFMPLVIKVTSATSVNLGILTSDL [A22S] is lower in protein stability index: 3.93 for the first, 2.88 for the second.

Compared with SFMPLVIKVTSATSVNLGILTIDL [A22I], SFMPLVIKVTSATSVNLGILTRDL [A22R] is lower in protein stability index: 4 for the first, 2.35 for the second.

First: SFMPLVIKVTSATSVNLGILTFDL [A22F]
Second: SFMPLVIKVTSATSVNLGILTAVL [D23V]
The protein stability index of the first is lower: 2.92 for the first, 3.83 for the second.

Going from SFMPLVIKVTSATSVNLGILTAPL [D23P] to SFMPLVIKVTSATSVNLGILTAHL [D23H], the protein stability index rises from 2.65 to 3.1.

Compared with SFMPLVIKVTSATSVNLGILTALL [D23L], SFMPLVIKVTSATSVNLGILTANL [D23N] is lower in protein stability index: 3.79 for the first, 3.05 for the second.

Going from SFMPLVIKVTSATSVNLGILTAGL [D23G] to SFMPLVIKVTSATSVNLGILTASL [D23S], the protein stability index falls from 3.96 to 2.11.

First: SFMPLVIKVTSATSVNLGILTAWL [D23W]
Second: SFMPLVIKVTSATSVNLGILTATL [D23T]
The protein stability index of the first is lower: 2.49 for the first, 3.29 for the second.

Going from SFMPLVIKVTSATSVNLGILTAFL [D23F] to SFMPLVIKVTSATSVNLGILTAAL [D23A], the protein stability index falls from 2.91 to 2.74.

Compared with SFMPLVIKVTSATSVNLGILTAEL [D23E], SFMPLVIKVTSATSVNLGILTAYL [D23Y] is lower in protein stability index: 4.12 for the first, 3.03 for the second.

Compared with SFMPLVIKVTSATSVNLGILTAQL [D23Q], SFMPLVIKVTSATSVNLGILTAIL [D23I] is lower in protein stability index: 3.39 for the first, 3.05 for the second.

Compared with SFMPLVIKVTSATSVNLGILTAML [D23M], SFMPLVIKVTSATSVNLGILTACL [D23C] is higher in protein stability index: 1.83 for the first, 2.29 for the second.

For SFMPLVIKVTSATSVNLGILTAKL [D23K], the protein stability index was 1.8.

Variants of: B2
Assay: as above
Settings: c terminus: native

First: KISGGPRISYPLLHEWALAEGEE [R19A]
Second: KISGGPRISYPLLHEWALDEGEE [R19D]
The protein stability index of the first is lower: 2.07 for the first, 2.96 for the second.

Going from KISGGPRISYPLQHEWALREGEE [L13Q] to KISGGPRISYVLLHEWALREGEE [P11V], the protein stability index falls from 2.27 to 2.1.

Compared with KISGGPRISYPLLHECALREGEE [W16C], KISGGPRISYPLLHESALREGEE [W16S] is lower in protein stability index: 2.94 for the first, 2.33 for the second.

Compared with KISGGPRISYPLLHEWALRTGEE [E20T], KISGGPRISYPLLHEWALRWGEE [E20W] is lower in protein stability index: 2.92 for the first, 2.32 for the second.

First: KISGGPRISYPLLHEWALRSGEE [E20S]
Second: KISGGPRISYPLLHEWALREGED [E23D]
The protein stability index of the first is higher: 4.57 for the first, 3.38 for the second.

First: KISGGPRISYPLLHKWALREGEE [E15K]
Second: KISGGPRISYPLLHEWDLREGEE [A17D]
The protein stability index of the first is higher: 3.16 for the first, 1.28 for the second.

Going from KISGGPRISYPLLHEWALREGNE [E22N] to KISGGPRISYPLLHEWALREGFE [E22F], the protein stability index rises from 2.53 to 2.75.

— the supplement of paper PMC10567573
